US20120245092A1 (ECOLE NORMALE SUPERIEURE DE LYON, published 2012)
Each block holds one binder with its values, some of them ahead of it.

Experiments:
[1] = target: T1, CNA construct CNA11, two-hybrid prey (Mus musculus (Mouse), UniProt P48453 384-495); experiment: yeast two-hybrid assay (FIG. 14)
T1 construct: not shown: HA-pJG4-5 prey fusion moiety

[2] = target: T2, CNA beta C ter-delta 1 (amino acids 378 to 500), two-hybrid prey (human, UniProt P16298 378-500); experiment: yeast two-hybrid mating assay
T2 construct: also called CnAβCter Δ1
Procedure: (§1) The 5′ end of RH6 (upper case) matches part of the HA epitope tag and the 5′ ends of RH4, RH3 and RH7 (upper case) match the 5′ extremity of the ADH terminator. The PCR reactions was performed using pCMV-SPORT6-CnAβ as a template. […] MB210a was co-transformed with the PCR products and EcoRI/XhoI-cut pJG4-5. The prey plasmids were retrieved from the transformants (21) and the homologous recombination products were checked by sequencing. MB210a was also transformed with positive and negative controls of interaction. […] The yeast two-hybrid mating assays were performed as described (21).

[3] = target: T3, CNA beta C ter-delta 2 (amino acids 378 to 456), two-hybrid prey (human, UniProt P16298 378-456); experiment: yeast two-hybrid mating assay
T3 construct: also called CnAβCter Δ2
Procedure: as §1

[4] = target: T4, CNA beta C ter-CaM (amino acids 378 to 423), two-hybrid prey (human, UniProt P16298 378-423); experiment: yeast two-hybrid mating assay
T4 construct: also called CnAβCter CaM
Procedure: as §1

[5] = target: T5, NS5A-TP2 (two-hybrid prey) (human, UniProt Q7Z4H3 1-204); experiment: yeast two-hybrid assay (FIG. 9)
T5 sequence: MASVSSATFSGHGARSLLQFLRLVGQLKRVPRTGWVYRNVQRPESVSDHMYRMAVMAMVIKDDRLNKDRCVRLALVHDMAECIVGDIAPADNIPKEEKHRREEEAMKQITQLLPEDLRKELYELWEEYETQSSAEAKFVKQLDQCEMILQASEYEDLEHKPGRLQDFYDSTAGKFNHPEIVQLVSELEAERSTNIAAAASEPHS
From the text: (§2) CNA beta and gamma C-Terminal fragments and NS5A-TP2 were cloned in three different vectors (pSH18-34, pJK103 and pRB18-40). These three plasmids differ from each other in the level of sensitivity of their promoter, pSH18-34 having the highest sensitivity and pRB18-40 having the lowest.

[6] = target: T6, CNAγ C-terminal fragment (calcineurin A gamma clone selected from the testes cDNA library, two-hybrid prey) (human, UniProt P48454 365-512); experiment: yeast two-hybrid mating assay
T6 construct: Truncated protein; also called CNA gamma C-terminal fragment
T6 sequence (P48454 365-512): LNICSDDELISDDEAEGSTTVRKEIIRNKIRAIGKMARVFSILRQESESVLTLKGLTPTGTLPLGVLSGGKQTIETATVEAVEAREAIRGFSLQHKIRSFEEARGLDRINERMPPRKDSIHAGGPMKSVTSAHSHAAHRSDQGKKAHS
Procedure: as §1

[7] = target: T7, CNAβ C-terminal fragment (calcineurin A beta clone selected from the testes cDNA library, two-hybrid prey) (human, UniProt P16298 378-524); experiment: yeast two-hybrid mating assay
T7 construct: Truncated protein; The truncations made from it start at amino acid 378; also called CNA beta C-terminal fragment
Procedure: as §1

[8] = target: T6, CNAγ C-terminal fragment (calcineurin A …); experiment: yeast two-hybrid assay (FIG. 9)
From the text: as §2

[9] = target: T7, CNAβ C-terminal fragment (calcineurin A …); experiment: yeast two-hybrid assay (FIG. 9)
From the text: as §2

[10] = target: T8, CNA construct CNA10, two-hybrid prey; experiment: yeast two-hybrid assay, higher sensitivity (FIG. 14)
T8 construct: not shown: HA-pJG4-5 prey fusion moiety

[11] = target: T9, CNA construct CNA3, two-hybrid prey (Homo sapiens (Human), UniProt P16298 384-524); experiment: as above
T9 construct: not shown: HA-pJG4-5 prey fusion moiety

[12] = target: T1, CNA construct CNA11, two-hybrid prey; experiment: as above
[13] = target: T10, CNA construct CNA8, two-hybrid prey (Homo sapiens (Human), UniProt P16298 1-388); experiment: as above
T10 construct: not shown: HA-pJG4-5 prey fusion moiety

[14] = target: T5, NS5A-TP2 (two-hybrid prey); experiment: as above
[15] = target: T11, CNA construct CNA4, two-hybrid prey (Homo sapiens (Human), UniProt P16298 414-524); experiment: as above
T11 construct: not shown: HA-pJG4-5 prey fusion moiety

[16] = target: T12, CNA construct CNA7, two-hybrid prey (Homo sapiens (Human), UniProt P16298 1-413); experiment: as above
T12 construct: not shown: HA-pJG4-5 prey fusion moiety

[17] = target: T13, CNA construct CNA9, two-hybrid prey (Rattus norvegicus (Rat), UniProt P20651 342-419); experiment: as above
T13 construct: not shown: HA-pJG4-5 prey fusion moiety

binding result [1]: binds
binding result [2]: binds
binding result [3]: no binding
binding result [4]: no binding
B1: LexA-R5G42 fusion protein (peptide aptamer R5G42 as two-hybrid bait) (designed binder, not shown: large carriers)
chain: MVKQIESKTAFQEALDAAGDKLVVVDFSATWCGPSAVTFAVCALGPCKMIKPFFHSLSEKYSNVIFLEVDVDDCQDVASECEVKCMPTFQFFKKGQKVGEFSGANKEKLEATINELV
notes: also called LexA-R5G42 bait protein

binding result [5]: no binding
binding result [1]: binds
B2: R5G42 mutant C8 (LexA fusion, two-hybrid bait) (designed binder)
chain: MVKQIESKTAFQEALDAAGDKLVVVDFSATWCGPSAVTIAVCALGPCKMIKPFFHSLSEKYSNVIFLEVDVDDCQDVASECEVKCMPTFQFFKKGQKVGEFSGANKEKLEATINELV
notes: One amino acid change against R5G42; also called R5G42-C8; not shown: LexA fusion partner (pGILDA bait)

binding result [5]: no binding
binding result [1]: binds
B3: R5G42 mutant C2 (LexA fusion, two-hybrid bait) (designed binder)
chain: MVKQIESKTAFQEALDAAGDKLVVVDFSATWCGPSAVTFAVCALGPCKMIKLFFHSLSEKYSNVIFLEVDVDDCQDVASECEVKCMPTFQFFKKGQKVGEFSGANKEKLEATINELV
notes: One amino acid change against R5G42; also called R5G42-C2; not shown: LexA fusion partner (pGILDA bait)

binding result [6]: no binding
binding result [7]: no binding
B4: LexA-R7G44 fusion protein (peptide aptamer R7G44 as two-hybrid bait) (designed binder)
chain: MVKQIESKTAFQEALDAAGDKLVVVDFSATWCGPHQSTIGVAEFGPCKMIKPFFHSLSEKYSNVIFLEVDVDDCQDVASECEVKCMPTFQFFKKGQKVGEFSGANKEKLEATINELV
notes: Control aptamer; not shown: LexA (E. coli), fusion partner from pGILDA

binding result [8]: no binding
binding result [9]: no binding
binding result [1]: binds
B5: R5G42 mutant N9 (LexA fusion, two-hybrid bait) (designed binder)
chain: MVKQIESKTAFQEALDAAGDKLVVVDFSAAWCGPSAVTFAVCALGPCKMIKPFFHSLSEKYSNVIFLEVDVDDCQDVASECEVKCMPTFQFFKKGQKVGEFSGANKEKLEATINELV
notes: One amino acid change against R5G42; also called R5G42-N9; not shown: LexA fusion partner (pGILDA bait)

binding result [5]: no binding
binding result [1]: binds
B6: R5G42 mutant C7 (LexA fusion, two-hybrid bait) (designed binder)
chain: MVKQIESKTAFQEALDAAGDKPVVVDFSATWCGPSAVTFAVCALGPCKMIKPFFHSLSEKYSNVIFLEVDVDDCQDVASECEVKCMPTFQFFKKGQKVGEFSGANKEKLEATINELV
notes: One amino acid change against R5G42; also called R5G42-C7; not shown: LexA fusion partner (pGILDA bait)

binding result [10]: no binding
binding result [11]: no binding
binding result [12]: no binding
binding result [13]: no binding
binding result [14]: no binding
binding result [15]: no binding
binding result [16]: no binding
binding result [17]: no binding
B7: LexA-R5G52 fusion protein (peptide aptamer R5G52 as two-hybrid bait) (designed binder)
chain: MVKQIESKTAFQEALDAAGDKLVVVDFSATWCGPIQSPPESPTGGPCKMIKPFFHSLSEKYSNVIFLEVDVDDCQDVASECEVKCMPTFQFFKKGQKVGEFSGANKEKLEATINELV
notes: also called LexA-R5G52 bait protein; not shown: LexA (E. coli), fusion partner from pGILDA
